Measurements as given in the nanobody polyreactivity screen of Harvey et al. (2022).

Assay: yeast display, Sf9 membrane polyspecificity reagent, FACS + sequencing; frameworks hold sequencing errors
In short: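 Polyreactivity labels are assigned by the sorting gate from which each nanobody was recovered. The gates were low and high (top ~1%), set on anti-HA fluorescence for expression and streptavidin fluorescence for reagent binding. Before sorting, galactose-induced (36–48 hours) yeast display cells were stained for 1 hour at 4 °C with 10% biotinylated, detergent-solubilized Sf9 membrane reagent.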

| Sequence | polyreactivity (PSR sort gate) |
| --- | --- |
| QVQLVESAAGLVQAGGSLRLSCAASGGIFWVYAMGWYRQAPGKERELVAAISNSDTSTSDADSVKGRFTISRDTAKNTVYLQMYSLKPEDTAVYNCNGDSPSLSGDIWGQGTQVTVTS | low polyreactivity |
| QVQLVESAAGLVQAGGSLRLSCAASGIIFSKYAMGWYRQAPGKERELVAASSSSGGSTYYADSVKGRFTISRDNAKNTVYLQMNSLKPEDTAVYYCAKGGGPNSRGYWGQGTQVTVSS | high polyreactivity |
| QVQLVESAAGLVQAGGSLRLSCAASGLILDEYAMGWYRQAPGKEMELVAAISWSGGSTYYADSVKGRFTISRDNAKNTVYLQMNSLKPEDTAVYYCAADRVWFSDNSYYYWGQGTQVTVSS | high polyreactivity |
| QVQLVESAAGLVQAGGSLRLSCAASGRIFGYYTMGWYRQAPGKERELVAAINGRGTSTYYADSVKGRFTISRDNAKYTVYLQMNSLKPEDTAVYYCAAQLYYYGQYKHFDYWGQGTQVTVSS | high polyreactivity |
| QVQLVESAAGLVQAGVSLRLSCAASGFTLFYYAMGWYRQEPGKERELVAGISRRGGSTYYADSVKGRFTISRDNEKNTVYLQMNSLKPEDTAVYYCAAGLCGYKSDTRGDYWGQGTQVTVSS | low polyreactivity |
| QVQLVESAGGIVQAGGSLRLSCAASGITFPGNAMGWYRPAPGKERELVAAIDCYGGSTYYADTVKGRFTISRDNAKNTVYLQLNSLKPEDTAVYYCATDEYFSYYGYFLDAYWGQGTQVTLSS | low polyreactivity |
| QVQLVESAGGIVQEGGSLRLSCAASGGTFTNYALGWYRQAPGKERELVAAITDSGAHTYYADSVKGRFTISRDNAKNKVYLQMYCLKPEDTAVYYCNAELDLYTDFDYWGQVTQVTVSS | low polyreactivity |
| QVQLVESAGGLVKEGGSLRLSCAASGRTFGVNAMGRYRQAPGKERELVAAITWSGDSTYYADSVKGRFTISRDNAKNTVYLQMNSLKPEDTAVYYCAKKSSLFKHVVRYAYWGQGNQVTVSS | low polyreactivity |
| QVQLVESAGGLVQAGASLRLSCAPSGSIFRINAMGWYRQAPGKERELVAAISTRSGRTYYADSVKGRFTISRDNAKNTVYLQMYSLNPEDTAVYYCARYRTQASGYGGYDYWGQGTQATVSS | high polyreactivity |
| QVQLVESAGGLVQAGCSLRLSCAASGSPFGYYAMGWYRQAPGKVRELVAAISRSGVSTYYADSVKGRFTISRDNAKNTFYLQMNSLKPEDTAVYYCDRVRSTPGSYNRFYYWGQGTQVTVSS | high polyreactivity |
| QVQLVESAGGLVQAGGSIRLSCAASGNIFFVYDMGWYRQAPGKERELVAAISWSGGSTYADSVKGRFTISRDNAKNTVYLQMNSLKPEDTAVYYWAASYGVYWYSFWYHVAWLDYWGQGTQVTVSS | low polyreactivity |
| QVQLVESAGGLVQAGGSLPLSCAASGRTFQTNLMGWYRQAPGKERELVAAITLSGGSTNYADSVKVRFTISRDNAKKTVYLQMNSLKPEDTAVYYCNAERRYRHQLTPHYEYDYWGKGTQVTVSS | low polyreactivity |
| QVQLVESAGGLVQAGGSLRLSCAASGFIFPTYAMGWYRQAPGKERELVAAITTGGGSTYYADSVKGRFTISRDNAKNTVYLQMNSLKPEDTAVYYCAAEYVAQAGYGEDYWGQGTQVTVSS | low polyreactivity |
| QVQLVESAGGLVQAGGSLRLSCAASGFIFRYNTMGWYRQAPGKERELVATINRSGGSTYYADSVKGRFTISRDNAKNTVYLQMNSLKPEDTAVYYCAAVSLQPYYIAGATWDGDYWGQGTQVTVSS | high polyreactivity |
| QVQLVESAGGLVQAGGSLRLSCAASGFIFSRNAMGWYRQAPGKERELVAAISGTGGRTYYADSVKGRFTLSRDNAKNTVYLQMNSLKTEDTAVYYCAADKRIGGFGYWGQGTQVTVSS | high polyreactivity |
| QVQLVESAGGLVQAGGSLRLSCAASGFTFRSNAIGWYRQAPGKQRELVAAITSRGGSTYYADSVKGRFTISRDNAKNTVYLQMNSLKPVDTAVYYCAAEGRSRKFDYWGQGTQVTVSS | high polyreactivity |

| Sequence | polyreactivity (PSR sort gate) |
| --- | --- |
| QVQLVESAGGLVQAGGSLRLSCAASGFTFYGYAMGAYSQAPGKERELVAAITSGGSTNYADAVKGRFTISRDNAKNTVYVQLNSLKPEDTAVYHCAAVWVANTARYSDTFGYWGQGTQVTVSS | high polyreactivity |
| QVQLVESAGGLVQAGGSLRLSCAASGITFNDNAMGGYRQAPGKERELVAAINSGNGTDYEDSVKGRFTISRDNAKNTVYLQMNSLKPEDTAVYYCATEGYVQGDLGYLYTRYAFYYWGQGTQVTVSS | low polyreactivity |
| QVQLVESAGGLVQAGGSLRLSCAASGLTQASYAMGWYRQAPGKERELVAAISRRSGRTYYADSVKGRFTISRDNAKNTVYLQMNSLKPVDTAVYYCNRGYTAQVYTEFDYWGQGTQVTVSS | low polyreactivity |
| QVQLVESAGGLVQAGGSLRLSCAASGLTYYFYPMGWYRQAPGKETELVAAINYDDGSTYYADSVKGRFTISRDNAKNTVYLQMNSLKPEDTAVYYCAADRDFRTPRLYYWGQGTQVTVSS | low polyreactivity |
| QVQLVESAGGLVQAGGSLRLSCAASGNIFSYYAMGWYRQAPGKERELVAAISRRGTNTYYADSVKGRFTISRDNAKNTVYLQMKSLKPEDTAVYYCARYGPYQSSYHYDYWGQGTQVTVSS | high polyreactivity |
| QVQLVESAGGLVQAGGSLRLSCAASGNTFATYAMGWYRQAPGKERELVAAITWTGGRTRYADSVKVRFTISRDNAKNTVYLPMNSLKPEDTAVYYCAAKRYDTTYDSWGQGTQVTVSS | high polyreactivity |
| QVQLVESAGGLVQAGGSLRLSCAASGRIFSAYAMRWYRQARGKERQLVAAITWSGANTDYADSVKGRFTISRDNAKNTVYLQMTSLKPEDTAVYYCNASFGRDSAYDYWGQGTQVTVSS | low polyreactivity |
| QVQLVESAGGLVQAGGSLRLSCAASGRIFSFNAMGWDRQAPGKERELVATIRTDGTTNYADSVKGRFTISRDNAKNTVYLQMNSLKPEDTAVYYCATDSGWSTYDYWGQGTQVTVSS | high polyreactivity |
| QVQLVESAGGLVQAGGSLRLSCAASGRTFKYYAMGWYRQAPGKERELVAAISRSGGSTYADSVKGRFTISRDNAKNTVYLQMNSLKPDETAVYYCAAYSGVGYLWFDYWGQGTQVTVSS | low polyreactivity |
| QVQLVESAGGLVQAGGSLRLSCAASGRTFVHYAIGWYRPAPAKERELVAAISWSGGSTYYADSVKGRFTISRDNAKNTGYLQMNSLKPEDTAVYYCNAGGFAPGRYGEFDYWGQGTQVTVSS | low polyreactivity |
| QVQLVESAGGLVQAGGSLRLSCAASGSIFGLYAMGWSRQAPGKDRELVAAITSAGSTYYADSVKGRFTISRDNAKNTVYLQMNTLKPEDTAVYYCAARGFYQFPSYYYWGKGTQVTVSS | high polyreactivity |
| QVQLVESAGGLVQAGGSLRLSCAASGSIFHYYAMGWYRQAPGKERELVAAINSSGGSRTYYADSVKGRFTISRDKAKNTVYLQMNSLKPEDTAVYYCAADYRVVWRAYDYWGQGTQVTVSS | low polyreactivity |
| QVQLVESAGGLVQAGGSLRLSCAASGSIFYRNVMAWYRQAPGQERELVAAITWSGGSTYYADSVKGRFTISRDNAKNTVYLQMNSLKPEDTAVYFCAAASKATYRGKVSGYYYWGQGTQVTVSS | high polyreactivity |
| QVQLVESAGGLVQAGGSLRLSCAASGSNDTNAMGWYRQEPWKERELVADITSGTPTYADSVKGRFTISRDNAKNTVFLQMNSLKPEDTAVYYCAADIPPWCGDYWGQGTQVTVSS | low polyreactivity |
| QVQLVESAGGLVQAGGSLRLSCAASGSSLGYYAMGWYRQAPGKERELVADIDNGTSTYYADSVKGRFTISRDNAKNTVYLQMNSLKQEDTAVYYCAADYYSRYLQSYYWGQGTQVTVSS | low polyreactivity |
